Sequences and labels used below:
B1: Discoidin, CUB and LCCL domain-containing protein 2 (Homo sapiens), Q96PD2 (parent)
chain: MASRAVVRARRCPQCPQVRAAAAAPAWAALPLSRSLPPCSNSSSFSMPLFLLLLLVLLLLLEDAGAQQGDGCGHTVLGPESGTLTSINYPQTYPNSTVCEWEIRVKMGERVRIKFGDFDIEDSDSCHFNYLRIYNGIGVSRTEIGKYCGLGLQMNHSIESKGNEITLLFMSGIHVSGRGFLASYSVIDKQDLITCLDTASNFLEPEFSKYCPAGCLLPFAEISGTIPHGYRDSSPLCMAGVHAGVVSNTLGGQISVVISKGIPYYESSLANNVTSVVGHLSTSLFTFKTSGCYGTLGMESGVIADPQITASSVLEWTDHTGQENSWKPKKARLKKPGPPWAAFATDEYQWLQIDLNKEKKITGIITTGSTMVEHNYYVSAYRILYSDDGQKWTVYREPGVEQDKIFQGNKDYHQDVRNNFLPPIIARFIRVNPTQWQQKIAMKMELLGCQFIPKGRPPKLTQPPPPRNSNDLKNTTAPPKIAKGRAPKFTQPLQPRSSNEFPAQTEQTTASPDIRNTTVTPNVTKDVALAAVLVPVLVMVLTTLILILVCAWHWRNRKKKTEGTYDLPYWDRAGWWKGMKQFLPAKAVDHEETPVRYSSSEVNHLSPREVTTVLQADSAEYAQPLVGGIVGTLHQRSTFKPEEGKEAGYADLDPYNSPGQEVYHAYAEPLPITGPEYATPIIMDMSGHPTTSVGQPSTSTFKATGNQPPPLVGTYNTLLSRTDSCSSAQAQYDTPKAGKPGLPAPDELVYQVPQSTQEVSGAGRDGECDVFKEIL

In test [1] the parent is B1. As to conditions: with crkl_human CRKL.
Variants of B1 are the subject of test [2]. As to conditions: with fyn_human FYN.

The text below walks through data of IntAct's records for PubMed 23770091.

As to Y677F, the “effect of a mutation on the interaction” value in test [1] and in test [2] was “disrupting interaction” in each case.

As for Y565F, the “effect of a mutation on the interaction” value in test [1] and in test [2] was “disrupting interaction” throughout.

Take Y621F: the “effect of a mutation on the interaction” value in test [1] and in test [2] was “disrupting interaction” each time.

Regarding Y732F, the “effect of a mutation on the interaction” value in test [1] and in test [2] was “disrupting interaction” throughout.

Regarding Y666F, the “effect of a mutation on the interaction” value in test [1] and in test [2] was “disrupting interaction” each time.

Take Y655F: the “effect of a mutation on the interaction” value in test [1] and in test [2] was “disrupting interaction” throughout.

As to Y750F, the “effect of a mutation on the interaction” value in test [1] and in test [2] was “disrupting interaction” in each case.
